These results are taken from patent publication US20170044241A1 (VYBION, published 2017).

Assay [1] deals with T1, biotinylated Huntingtin peptide Happ(+) (RPQLPQPPPQAQPRGGGSK-biotin).
T1 construct: also called biotinylated PRP; poly-proline peptide
T1 peptide: RPQLPQPPPQAQPRGGGSK-biotin
Nature of the assay: ELISA, H8 in E. coli lysate against purified H8; peptide not given. Background: ELISA stands for enzyme-linked immunosorbent assay.

The target of assay [2] is T2, biotinylated Huntingtin peptide Happ(-) (PGPAVAEEPLHRPG-biotin).
T2 construct: also called second biotinylated proline rich peptide; carboxy derived Huntington's peptide
T2 peptide: PGPAVAEEPLHRPG-biotin
The assay is described as above.

In assay [3] the target is T1, biotinylated Huntingtin peptide Happ(+) …. Nature of the assay: ELISA, purified scFv on biotinylated peptide. The method, then: (§1) ELISA was performed to determine the binding activity of isolated scFv clones against biotinylated Huntingtin peptide designated Happ(+) ([…]-biotin (SEQ ID NO: 26), and a second biotinylated Huntingtin peptide designated Happ(−) ([…]-biotin (SEQ ID NO: 28). All incubations except antigen coating were carried out at room temperature. Microtiter plates (Nuc) were coated with 100 μl of a biotinlyated Huntingtin peptide solution (2 μg/ml in 50 mM NaHCO3 buffer, pH 9.6) and incubated overnight at 4° C. The plates were washed 3 times with 200 μl of 1×TBS (50 mM Tris-Cl, 150 mM NaCl pH 8.0) and blocked with 100 μl of 2% milk in TBS for 2 hr. Plates were washed once with 200 μl of 1×TBS. In some experiments, preblocked Strepavidin coated plates (Pierce) were used to bind biotinylated peptide. Cell extracts (50 μl) or purified StrepII tagged Intrabodies were added to the antigen-coated blocked plates and incubated for 1.5 hr. Extracts of E. coli cultures from individual colonies selected by panning after overnight induction with IPTG were prepared by lysis in B-Per (Pierce) as described by the manufacturer and centrifuged at 10,000×g for 10 minutes to remove cell wall and debris. Supernatants from these extracts were used directly or diluted with TBS (1:2, 1:4) prior to use. […] The optical density (OD) was measured at 405 nm on a spectrophotometer and the level of scFv binding determined. […]

Assay [4] concerns the target T2, biotinylated Huntingtin peptide Happ(-) …. Nature of the assay: ELISA, purified intrabody on poly-proline peptides (FIG. 1A). How it is done: as §1
Assay [5] has as its target T1, biotinylated Huntingtin peptide Happ(+) …. The experiment in a line: ELISA, purified intrabody on poly-proline peptides (FIG. 1B). How it is done: as §1
Assay [6] addresses T2, biotinylated Huntingtin peptide Happ(-) …. The description is as above. How it is done:
as §1

The target of assay [7] is T1, biotinylated Huntingtin peptide Happ(+) …. Nature of the assay: ELISA, purified intrabody on poly-proline peptides (FIG. 1C). The method, then:
as §1

The target of assay [8] is T2, biotinylated Huntingtin peptide Happ(-) …. The description is as above. How it is done: as §1

No end group written: not given here. biotin = biotin label at C-terminus

B1: H8 (scFv)
scFv: MAEVQLVVSGGGLVKPGGSMILSCAASGFTFSNYSMNWVRQAPGKGLEWVSSISSSSEYIYYADFVKGRFTISRDNAKNSLYLQMDSLRAEDTAVYYCAAAVCNGRPDTWGRGTLVTVSSGGGGSGGGGSGGGGSQSVLTQPASVSGSPGQSITISCAGTSSDVGGYNYVSWYQQHPGKAPKLMIYEDSKRPSGVSNRFSGSKSGNTASLTISGLRAEDEADYYCGYSLLPVLFGGGTKLAVLGAAAEQKLIS
notes: Single chain intrabody; tested purified (StrepII tag) and also in E. coli lysate form; not shown: carboxy terminal StrepII tag of the purified form (pET24)
Take B1: the “fold signal, lysate form against purified form” value in assay [1] and in assay [2] was 3 times in each case.

B2: INT41 (scFv)
scFv: MAEVQLVVSGGGLVKPGGSMILSCAASGFTFSNYSMNWVRQAPGKGLEWVSSISSSSEYIYYADFVKGRFTISRDNAKNSLYLQMDSLRAEDTAVYYCAWPGYRKAWGRGTLVTVSSGGGGSGGGGSGGGGSQSVLTQPASVSGSPGQSITISCAGTSSDVGGYNYVSWYQQHPGKAPKLMIYEDSKRPSGVSNRFSGSKSGNTASLTISGLRAEDEADYYCSYCASKGHWLFGGGTKLAVLGAAAEQKLIS
notes: Single chain intrabody (VH-linker-VL) from the T3 scFv library; Purified from E. coli with a carboxy terminal StrepII tag for the ELISA; also called INT41 intrabody; not shown: carboxy terminal StrepII tag of the purified form (pET24)
As for B2, the binding result in assay [3] and in assay [4] was “binds” in each case.

B3: A2 (scFv)
scFv: MAEVQLVVSGGGLVKPGGSMILSCAASGFTFSNYSMNWVRQAPGKGLEWVSSISSSSEYIYYADFVKGRFTISRDNAKNSLYLQMDSLRAEDTAVYYCAHWPRLWRFPLWGRGTLVTVSSGGGGSGGGGSGGGGSQSVLTQPASVSGSPGQSITISCAGTSSDVGGYNYVSWYQQHPGKAPKLMIYEDSKRPSGVSNRFSGSKSGNTASLTISGLRAEDEADYYCVLNMHWANFGGGTKLAVLGAAAEQKLIS
notes: Single chain intrabody; purified with a carboxy terminal StrepII tag for the ELISA; not shown: carboxy terminal StrepII tag of the purified form (pET24)
B3: the binding result in assay [5] and in assay [6] was “binds” in each case.

B4: E10 (scFv)
scFv: MAEVQLVVSGGGLVKPGGSMILSCAASGFTFSNYSMNWVRQAPGKGLEWVSSISSSSEYIYYADFVKGRFTISRDNAKNSLYLQMDSLRAEDTAVYYCAITGCECTWGRGTLVTVSSGGGGSGGGGSGGGGSQSVLTQPASVSGSPGQSITISCAGTSSDVGGYNYVSWYQQHPGKAPKLMIYEDSKRPSGVSNRFSGSKSGNTASLTISGLRAEDEADYYCSCIRGLKAAYFGGGTKLAVLGAAAEQKLIS
notes: as for B3
Regarding B4, the binding result in assay [7] and in assay [8] was “binds” throughout.
